Source: patent publication US20190002511

What was measured:
[1] = system: avathrin (Amblyomma variegatum thrombin inhibitor)
[2] = system: avathrin K10R
[3] = system: ultravariegin
[4] = system: β-avathrin
Chain of β-avathrin (chain, as listed by the source): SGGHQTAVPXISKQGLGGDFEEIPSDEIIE

Chain of avathrin K10R (chain, as listed by the source K10R): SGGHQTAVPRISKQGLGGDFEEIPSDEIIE
Chain of ultravariegin (chain, as listed by the source): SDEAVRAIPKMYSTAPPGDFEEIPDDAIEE
Chain of avathrin (Amblyomma variegatum thrombin inhibitor) (chain, as listed by the source): as the sequence (chain, as listed by the source K10R) above, with R10K counted along it

Substance: human α-thrombin (recombinant)
- time to complete cleavage by thrombin (30:1 peptide to enzyme) [1]: avathrin was completely cleaved at ~10 h
- time to complete cleavage by thrombin [2]: resulting in complete cleavage within 3 h
- time to complete cleavage by thrombin [3]: At 18 h, ultravariegin was completely cleaved
- cleavage by thrombin [4]: it was not cleaved by thrombin for up to 72 h
